Values of other authors, collected in paper PMC3491057, “Proliferating Cell Nuclear Antigen (PCNA) Interactions in Solution Studied by NMR” (PLoS ONE, 2012).

Target: T1, human PCNA (Homo sapiens, UniProt P12004)
T1 construct: His6 tag with PreScission protease cleavage site (N, cleaved yes); made in house; host or cells: E. coli
Details: PIP-box fragments
Description: The CDK inhibitor p21 mediates the cellular response to DNA damage by arresting the cell cycle at the G1 phase, inhibiting the progression into the S phase and thus DNA replication. It is an intrinsically disordered protein with an N-terminal sequence similar to other CDK-inhibitory proteins (including p27^Kip1, p57^Kip2, and p27^XIC1) and a C-terminal region containing a PIP-box. […] The smallest p21 fragment still competing with p21^20 ... || We have characterized the thermodynamics of the p21^20 and p21^12 peptides binding to PCNA by Isothermal Titration Calorimetry (ITC) in the same buffer (PBS pH 7.0) and at the same temperature (35°C) as the NMR experiments described below (Figure 3 and Figure S2). To allow comparison with data in the literature for the p21^20 [34], ITC experiments were also carried out at 30°C.

T1 sequence (P12004 whole entry): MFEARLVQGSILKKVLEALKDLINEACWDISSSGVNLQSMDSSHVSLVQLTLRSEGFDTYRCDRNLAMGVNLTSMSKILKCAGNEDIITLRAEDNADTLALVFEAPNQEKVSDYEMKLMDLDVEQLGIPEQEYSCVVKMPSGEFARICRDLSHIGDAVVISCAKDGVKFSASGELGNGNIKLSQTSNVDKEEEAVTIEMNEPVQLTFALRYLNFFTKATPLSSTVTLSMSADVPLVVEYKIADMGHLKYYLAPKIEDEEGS

Row | Substance | Kd
1 | Fen-1^22: PIP-box fragment of Flap endonuclease 1 (SRQGSTQGRLDDFFKVTGSL) | 60 µM
2 | p66^22: PIP-box fragment of p66, subunit 3 of human replicative DNA polymerase-δ (POLD3) (KANRQVSITGFFQRK) | 1.5 µM
